Test results from article PMC7229763.

Molecular target: T1, BAF-WT (Homo sapiens, UniProt O75531 1-89)
T1 sequence: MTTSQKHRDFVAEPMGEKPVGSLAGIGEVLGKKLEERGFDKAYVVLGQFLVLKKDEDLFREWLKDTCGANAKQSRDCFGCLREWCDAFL
Experiment: ITC

B1: ITC dsDNA (30 bp, same sequence as EMSA probe) (dsDNA)
DNA 1: GAATCCTAACTGGGCGGAGTTATGCTGGTG
DNA 2: CACCAGCATAACTCCGCCCAGTTAGGATTC
With B1 the Ka was 1.89 ± 0.19 uM (as printed for KA; dimension inconsistent, possibly 10^6 M-1).
